# In publication PMC8564726, “Heterodimerization of H3K9 histone methyltransferases G9a and GLP activates methyl reading and writing capabilities” (The Journal of Biological Chemistry, 2021):
# Entries after “also recorded” stand apart in the source; their conditions may differ.
# B1: G9a-G9a: homodimer of G9a truncated to the C-terminal ANK and SET domains (ANK-SET) (protein)
# chain: MRGLPRGRGLMRARGRGRAAPTGGRGRGRGGAHRGRGRPRSLLSLPRAQASWAPQLPAGLTGPPVPCLPSQGEAPAEMGALLLEKEPRGAAERVHSSLGDTPQSEETLPKANPDSLEPAGPSSPASVTVTVGDEGADTPVGAASLIGDEPESLEGDGGRIVLGHATKSFPSSPSKGGACPSRAKMSMTGAGKSPPSVQSLAMRLLSMPGAQGAATAGPEPSPATTAAQEGQPKVHRARKTMSKPSNGQPPIPEKRPPEVQHFRMSDDMHLGKVTSDVAKRRKLNSGSLSEDLGSAGGSGDIILEKGEPRPLEEWETVVGDDFSLYYDAYSVDERVDSDSKSEVEALAEQLSEEEEEEEEEEEEEEEEEEEEEEEEEDEESGNQSDRSGSSGRRKAKKKWRKDSPWVKPSRKRRKREPPRAKEPRGVNGVGSSGPSEYMEVPLGSLELPSEGTLSPNHAGVSNDTSSLETERGFEELPLCSCRMEAPKIDRISERAGHKCMATESVDGELLGCNAAILKRETMRPSSRVALMVLCEAHRARMVKHHCCPGCGYFCTAGTFLECHPDFRVAHRFHKACVSQLNGMVFCPHCGEDASEAQEVTIPRGDGGTPPIGTAAPALPPLAHDAPGRADTSQPSARMRGHGEPRRPPCDPLADTIDSSGPSLTLPNGGCLSAVGLPPGPGREALEKALVIQESERRKKLRFHPRQLYLSVKQGELQKVILMLLDNLDPNFQSDQQSKRTPLHAAAQKGSVEICHVLLQAGANINAVDKQQRTPLMEAVVNNHLEVARYMVQLGGCVYSKEEDGSTCLHHAAKIGNLEMVSLLLSTGQVDVNAQDSGGWTPIIWAAEHKHIDVIRMLLTRGADVTLTDNEENICLHWASFTGSAAIAEVLLNAQCDLHAVNYHGDTPLHIAARESYHDCVLLFLSRGANPELRNKEGDTAWDLTPERSDVWFALQLNRKLRLGVGNRAVRTEKIICRDVARGYENVPIPCVNGVDGEPCPEDYKYISENCETSTMNIDRNITHLQHCTCVDDCSSSNCLCGQLSIRCWYDKDGRLLQEFNKIEPPLIFECNQACSCWRSCKNRVVQSGIKVRLQLYRTAKMGWGVRALQTIPQGTFICEYVGELISDAEADVREDDSYLFDLDNKDGEVYCIDARYYGNISRFINHLCDPNIIPVRVFMLHQDLRFPRIAFFSSRDIRTGEELGFDYGDRFWDIKSKYFTCQCGSEKCKHSAEAIALEQSRLARLDPHPELLPDLSSLPPINT
# Experiments:
# [1] = tested on: H3K9me1 monomethylated mononucleosomes; assay: Fluorescence polarization binding to H3K9me1 mononucleosome
# Source text: (§1) Histone proteins and nucleosomes were purified as described ([11], [26]) with modifications (see Supporting methods). For fluorescence polarization, nucleosomes were reconstituted with a 5ʹ fluoresceinated DNA template. H3K9 dimethylation was installed via Methyl-Lysine Analog (MLA) technology as described ([10], [26]). K9 MLA-monomethylated H3 was purchased from Active Motif. H3K27A was introduced by site-directed mutagenesis and purified as described ([26]).
# (§2) Polarization assays with fluoresceinated H3_1–20 K9me1 or K9me2 peptides, 147 bp 601 DNA template, and core nucleosomes were performed and Kd values estimated as described ([11]) with the following modifications: The reaction buffer was 100 mM Tris pH 8, 100 mM KCl, 1 mM MgCl2, 20 μM ZnSO4, 10 mM BME, 0.1% NP-40. The concentration of peptides and nucleosomes was 150 nM and 200 nM for DNA. Polarization measurements were conducted on a Biotek Cytation 5 (peptide and nucleosome) or Molecular Devices Spectramax (DNA) plate reader with low-volume plates (Corning) in either 10 μl (peptide, nucleosome) or 40 μl (DNA) total volume.
# [2] = biological target: unmethylated (H3K9me0) mononucleosomes; assay: Fluorescence polarization binding to unmethylated mononucleosome; details: 147 bp 601 DNA 5ʹ fluorescein-labeled nucleosomes, 150 nM, pH 8, 100 mM KCl, 0.1% NP-40, 95% CI (μM): G9a 6.4-8.6, G9a-GLP 5.6-7.6, GLP-GLP 17.4-41.5, read-out: Kd, unmethylated (me0) mononucleosome
# Source text: as §1, §2
# H3_1–20 K9me2 peptide = assay: Fluorescence polarization binding to H3K9me2 peptide; details: listed as G9a
# Description: as §2
# H3_1–20 K9me1 peptide = assay: Fluorescence polarization binding to H3K9me1 peptide; details: listed as G9a
# Description: as §2
# H3_1–20 peptide = assay: H3 tail peptide methylation kinetics (multiple turnover); assay type: biochemical; details: Michaelis–Menten, 9 μM 3H-SAM + 1000 μM cold SAM, 0.4 to 0.8 μM enzyme, pH 8, duplicates, 95% CI: G9a-G9a 24.6-34.6, GLP-GLP 9.5-15.5, G9a-GLP 26.0-34.5, G9aS-GLP 20.5-28.3, listed as G9a
# Description: Substrate peptides or nucleosomes were mixed in a solution containing 9 μM tritiated S-Adenosyl Methionine (SAM, PerkinElmer) cofactor, and reactions were initiated upon addition of 0.4 to 0.8 μM enzyme. Peptide reactions were supplemented with 1000 μM cold SAM to fully saturate the SAM-binding pocket (Fig. S3). Due to signal limitations, nucleosome reactions were not supplemented with SAM (see Supporting methods). Reactions were run in 100 mM Tris pH 8, 100 mM KCl, 1 mM MgCl2, 20 μM ZnSO4, 10 mM BME and quenched with laemmli buffer. Peptide reactions were performed as described ([11]). Nucleosome methylation reactions were read out via autoradiography as described ([11]), except that proteins were separated on an 18% SDS PAGE gel.
# All methylation reactions (except Fig. S4A) were performed under Multiple Turnover conditions ([25]). To determine initial rates, methylation time courses were traced at various concentrations of H3K9-containing substrate while keeping the concentration of SAM and enzyme constant. Plots of initial rate versus concentration H3K9 substrate measured in duplicate or triplicate were fit to V = Vmax∗[S]/(KM + [S]) using Prism software to extract KM and kcat (or kobs) values as well as the 95% confidence interval bounds of the fit. See Supporting methods for special considerations for nucleosome kinetics.
# [3] = tested on: H3K9me2 dimethylated mononucleosomes; assay: Fluorescence polarization binding to H3K9me2 mononucleosome
# Source text: as §1, §2
molecule,measurement,setting,value
B1,"binding to H3K9me1 nucleosomes, in words",[1],decreases compared with unmethylated nucleosomes
same,Kd,[2],6 to 7 µM
same,"affinity for H3K9me2 peptide, in words",H3_1–20 K9me2 peptide,no discernable affinity for me1 or me2 peptides; also recorded: does not recognize H3K9me1/2 peptides
same,"affinity for H3K9me1 peptide, in words",H3_1–20 K9me1 peptide,no discernable affinity for me1 or me2 peptides; also recorded: does not recognize H3K9me1/2 peptides
same,"kcat, H3_1–20 peptide",H3_1–20 peptide,~0.55 s⁻¹
same,"binding to H3K9me2 nucleosomes, in words",[3],decreases compared with unmethylated nucleosomes
